From patent publication US20180002379

What was measured:
Test in all cases: cell_activity
[1] = test system: ZFN SBS#20505 (synthetic)
[2] = test system: ZFN SBS#46697 (synthetic)
[3] = test system: ZFN SBS#46696 (synthetic)
[4] = test system: ZFN SBS#46693 (synthetic)
[5] = test system: ZFN SBS#46705 (synthetic)
[6] = test system: ZFN SBS#8266 (synthetic)
[7] = test system: ZFN SBS#46700 (synthetic)
[8] = test system: ZFN SBS#46698 (synthetic)
[9] = pair 46700:46705 at CCR2, GFP 0.05

Sequence: AAACTGCAAAAA (double strand) [CCR2 right half-site]
- activity ([1]; pair 8266:20505 at CCR2, K562): 5.23 % indel
- activity ([2]; pair 46693:46697 at CCR2, no SELEX evidence of binding the CCR2 adenine): 0.07 % indel
- activity ([3]; pair 46693:46696 at CCR2, background level, no SELEX evidence of binding the CCR2 adenine): 0.01 % indel

Sequence: AAACTGCAAAAG (double strand) [CCR5 right half-site (20505)]
- activity ([1]; pair 8266:20505, K562): 29.9 % indel

Sequence: AGGATGAGGATGACCAGCATGTTGTTGC (double strand) [CCR5 left target]
- activity ([4]; pair 46693:46697, K562, GFP 0.01): 10 % indel

Sequence: ATAAACTGCAAAAGGCTGAAGAGCATGA (double strand) [CCR5 right target]
- activity ([2]; pair 46693:46697, K562): 10 % indel
- activity ([3]; pair 46693:46696, K562, printed 417, 632 of 15162 reads): 4.17 % indel

Sequence: CAAAAAGCTGAAGTGCTT (double strand) [CCR2 shifted right half-site]
- activity [5, 9]: 0.08 % indel

Sequence: GATGAGGATGAC (double strand) [CCR5 left half-site (8266)]
- activity ([6]; pair 8266:20505, K562): 29.9 % indel

Sequence: GGTCGTCCTCATCTTAAT (double strand) [CCR2 shifted left half-site]
- activity [7, 9]: 0.08 % indel
- activity ([8]; pair 46698:46705 at CCR2): 0 % indel

Sequence: GTCGTCCTCATC (double strand) [CCR2 left half-site]
- activity ([6]; pair 8266:20505 at CCR2, K562): 5.23 % indel
- activity ([4]; pair 46693:46697 at CCR2, p 0.0013): 0.07 % indel

Sequence: TGCAAAAGGCTGAAGAGCATGACTGACA (double strand) [CCR5 shifted right 6F]
- activity ([5]; pair 46700:46705, K562, GFP 0.03): 27.4 % indel

Sequence: TTATCAGGATGAGGATGACCAGCATGTT (double strand) [CCR5 shifted left 4F]
- activity ([8]; pair 46698:46705, K562): 23.8 % indel

Sequence: TTATCAGGATGAGGATGACCAGCATGTT (double strand) [CCR5 shifted left 6F]
- activity ([7]; pair 46700:46705, K562): 27.4 % indel
